Results from patent publication US20210038648A1 (THOMAS JEFFERSON UNIVERSITY, published 2021).

Columns and labels:
[1] = target: T1, human GUCY2C (hGUCY2C) on cells (human, UniProt P25092 24-1073); test: flow cytometry on CT26.hGUCY2C cells
T1 construct: whole, on cells; also called guanylyl cyclase C; GCC
Description: Cells were authenticated by the original suppliers and routinely authenticated by morphology, growth, antibiotic resistance (where appropriate GUCY2C and β-galactosidase expression, and pattern of metastasis in vivo and routinely screened for mycoplasma using the Universal Mycoplasma Detection Kit (ATCC, Cat. No. 30-1012K). Before injection into mice, cells were routinely cultured for <2weeks. The gene encoding human GUCY2C was codon-optimized and synthesized (Gene Art, Life Technologies) and cloned into the retroviral construct pMSCVpuro (Clontech). CT26.hGUCY2C and CT26.CL25.hGUCY2C were generated by transducing CT26 and CT26.CL25 cells with retroviral supernatants encoding hGUCY2C, followed by selection with puromycin. […] The single chain variable fragment (scFv) from the human GUCY2C-specific antibody 5F9 was cloned into the pFUSE-rIgG-Fc2 (IL2ss) plasmid (Invivogen), producing a 5F9 scFv fusion protein with rabbit Fc (5F9-rFc), 5F9-rFc was collected in supernatants of transfected 293F cells (Life Technologies), titrated in ELISA plates (Nunc-Immuno PolySorp) coated with BSA or recombinant 6×His-tagged hGUCY2C extracellular domain (6×His-hGUCY2CECD) protein purified under contract from HEK293-6E cells by GenScript and detected with HRP-conjugated goat anti-rabbit (Jackson ImmunoResearch). […]

[2] = target: T2, recombinant 6xHis-tagged hGUCY2C extracellular domain (6xHis-hGUCY2CECD) (human, UniProt P25092 24-430); test: ELISA; plate coated with 6xHis-hGUCY2CECD, 5F9-rFc titrated
T2 construct: extracellular domain; also called purified hGUCY2C extracellular domain; immobilized hGUCY2CECD protein; not shown: 6xHis tag
T2 sequence (P25092 24-430): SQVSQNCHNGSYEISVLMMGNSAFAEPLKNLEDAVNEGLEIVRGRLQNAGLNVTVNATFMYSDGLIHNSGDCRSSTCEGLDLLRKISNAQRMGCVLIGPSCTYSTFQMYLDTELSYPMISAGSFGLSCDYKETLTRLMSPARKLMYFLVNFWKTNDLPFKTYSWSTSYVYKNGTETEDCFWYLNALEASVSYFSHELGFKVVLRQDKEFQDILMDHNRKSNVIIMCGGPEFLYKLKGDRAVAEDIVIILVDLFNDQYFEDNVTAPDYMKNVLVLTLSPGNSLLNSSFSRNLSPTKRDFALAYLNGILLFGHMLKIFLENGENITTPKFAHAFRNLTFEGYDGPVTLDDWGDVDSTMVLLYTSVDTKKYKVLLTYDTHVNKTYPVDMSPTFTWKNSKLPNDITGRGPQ

T1 sequence (P25092 24-1073): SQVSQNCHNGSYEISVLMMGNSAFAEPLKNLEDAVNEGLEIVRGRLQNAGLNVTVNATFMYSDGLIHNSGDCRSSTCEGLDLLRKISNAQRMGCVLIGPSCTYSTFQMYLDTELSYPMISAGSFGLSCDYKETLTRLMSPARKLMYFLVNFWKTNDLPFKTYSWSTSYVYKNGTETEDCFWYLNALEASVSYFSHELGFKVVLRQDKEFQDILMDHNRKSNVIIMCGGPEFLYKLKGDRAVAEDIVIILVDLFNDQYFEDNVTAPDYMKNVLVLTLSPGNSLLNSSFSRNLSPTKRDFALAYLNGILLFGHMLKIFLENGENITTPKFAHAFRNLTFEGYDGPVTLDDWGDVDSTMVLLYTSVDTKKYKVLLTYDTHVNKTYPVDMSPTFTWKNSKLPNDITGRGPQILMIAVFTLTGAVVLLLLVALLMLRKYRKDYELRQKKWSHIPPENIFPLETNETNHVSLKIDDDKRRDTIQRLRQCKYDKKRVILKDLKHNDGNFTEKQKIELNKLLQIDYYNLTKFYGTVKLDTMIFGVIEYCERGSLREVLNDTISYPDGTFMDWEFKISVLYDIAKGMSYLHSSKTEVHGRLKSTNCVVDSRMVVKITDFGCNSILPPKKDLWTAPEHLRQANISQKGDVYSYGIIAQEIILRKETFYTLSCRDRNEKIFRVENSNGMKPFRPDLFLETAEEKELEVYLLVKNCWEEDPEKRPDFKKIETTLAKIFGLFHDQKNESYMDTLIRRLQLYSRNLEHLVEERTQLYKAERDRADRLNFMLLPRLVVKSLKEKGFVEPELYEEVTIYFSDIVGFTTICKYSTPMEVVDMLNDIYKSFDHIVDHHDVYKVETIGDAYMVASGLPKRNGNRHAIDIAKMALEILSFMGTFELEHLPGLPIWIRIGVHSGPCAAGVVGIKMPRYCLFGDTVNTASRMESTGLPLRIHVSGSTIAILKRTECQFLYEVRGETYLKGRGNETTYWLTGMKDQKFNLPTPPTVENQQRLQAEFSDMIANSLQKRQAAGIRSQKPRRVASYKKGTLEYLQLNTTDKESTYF

B1: 5F9 scFv fusion protein with rabbit Fc (5F9-rFc) (Fc fusion)
chain: EIVMTQSPATLSVSPGERATLSCRASQSVSRNLAWYQQKPGQAPRLLIYGASTRATGIPARFSGSGSGTEFTLTIGSLQSEDFAVYYCQQYKTWPRTFGQGTNVEIKASGGGGSGGGGSGGGGSGGGGSELQVQLQQWGAGLLKPSETLSLTCAVFGGSFSGYYWSWIRQPPGKGLEWIGEINHRGNTNDNPSLKSRVTISVDTSKNQFALKLSSVTAADTAVYYCARERGYTYGNFDHWGQGTLVTVSS
notes: Secreted from transfected 293F cells and used as supernatant; also called recombinant 5F9 antibody; 5F9 antibody; not shown: rabbit IgG Fc from plasmid pFUSE-rIgG-Fc2 (IL2ss) (Invivogen)
binding result [1]: binds | binding result [2]: binds
